Laboratory results reported in PMC7076015.

Assays:
MBP-KPNA7(E344Q) (human) [1] = biological target: MBP-KPNA7(E344Q) (human) (UniProt A9QM74)
MBP-KPNA7(E344Q) (human) [2] = biological target: MBP-KPNA7(E344Q) (human) (UniProt A9QM74); remark: listed apart in the source
MBP-KPNA7(E344Q) (human) [3] = biological target: MBP-KPNA7(E344Q) (human) (UniProt A9QM74); assay: pull-down; MBP fusion proteins on amylose resin (1 μg/μl), GST-GFP-NLS constructs in solution (250 nM or indicated concentrations) with Imp-β (250 nM); 2 hrs at 4 °C, 20 mM Tris pH 8, 200 mM NaCl, 1 mM EDTA, 1 mM DTT, 0.05% Triton X-100; western blot

MBP-KPNA7(E344Q) (human), sequence (A9QM74 whole entry E344Q, the tested form may be a part): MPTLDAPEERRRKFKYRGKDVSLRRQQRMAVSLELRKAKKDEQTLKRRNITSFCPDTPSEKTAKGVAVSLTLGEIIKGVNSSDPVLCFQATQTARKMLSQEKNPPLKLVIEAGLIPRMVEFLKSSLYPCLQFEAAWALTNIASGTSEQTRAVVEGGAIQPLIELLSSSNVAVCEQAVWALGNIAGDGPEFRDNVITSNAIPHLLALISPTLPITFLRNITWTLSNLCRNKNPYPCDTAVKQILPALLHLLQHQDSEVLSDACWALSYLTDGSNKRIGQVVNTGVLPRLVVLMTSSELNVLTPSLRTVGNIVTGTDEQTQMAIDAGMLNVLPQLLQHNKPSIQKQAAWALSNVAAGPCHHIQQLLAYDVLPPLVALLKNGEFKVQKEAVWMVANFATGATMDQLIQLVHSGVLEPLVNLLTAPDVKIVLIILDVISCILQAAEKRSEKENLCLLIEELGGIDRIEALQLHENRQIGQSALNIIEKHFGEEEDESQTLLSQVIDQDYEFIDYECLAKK
GST-GFP-hnRNP U monopartite NLS (domain or fragment), sequence (Q00839 2-825): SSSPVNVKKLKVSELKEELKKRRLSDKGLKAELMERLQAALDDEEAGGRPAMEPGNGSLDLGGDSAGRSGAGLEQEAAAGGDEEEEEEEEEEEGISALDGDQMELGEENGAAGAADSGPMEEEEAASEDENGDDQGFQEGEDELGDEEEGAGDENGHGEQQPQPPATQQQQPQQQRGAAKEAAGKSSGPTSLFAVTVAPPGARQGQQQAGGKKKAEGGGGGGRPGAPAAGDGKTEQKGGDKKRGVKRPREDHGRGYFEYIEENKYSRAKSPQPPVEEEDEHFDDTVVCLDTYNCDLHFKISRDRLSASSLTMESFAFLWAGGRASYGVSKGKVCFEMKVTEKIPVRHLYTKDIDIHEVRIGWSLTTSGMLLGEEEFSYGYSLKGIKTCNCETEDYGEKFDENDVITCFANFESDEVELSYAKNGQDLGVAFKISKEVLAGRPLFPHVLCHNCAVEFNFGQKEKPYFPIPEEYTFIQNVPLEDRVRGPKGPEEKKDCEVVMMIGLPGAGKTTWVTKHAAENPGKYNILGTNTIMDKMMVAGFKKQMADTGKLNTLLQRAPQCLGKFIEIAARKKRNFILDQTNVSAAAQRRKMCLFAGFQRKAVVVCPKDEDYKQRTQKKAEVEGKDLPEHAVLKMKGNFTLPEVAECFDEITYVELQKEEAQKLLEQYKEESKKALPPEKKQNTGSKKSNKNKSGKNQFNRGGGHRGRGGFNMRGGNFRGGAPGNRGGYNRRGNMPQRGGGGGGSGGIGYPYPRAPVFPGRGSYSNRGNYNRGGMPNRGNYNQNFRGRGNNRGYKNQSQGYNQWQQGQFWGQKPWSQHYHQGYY

Row | nuclear import of GST-GFP-hnRNP U-mNLS in digitonin-permeabilized HeLa cells, reduction compared to WT KPNA7 (MBP-KPNA7(E344Q) (human) [2]) [%] | fold less binding than WT or P339A KPNA7 (MBP-KPNA7(E344Q) (human) [3]) [fold] | Substance | nuclear import of GST-GFP-NLS in digitonin-permeabilized HeLa cells, reduction compared to wild-type KPNA7 (MBP-KPNA7(E344Q) (human) [1]) [%]
1 | – | – | GST-GFP-SV40-NLS (domain or fragment) | 20
2 | 30 | 8 | GST-GFP-hnRNP U monopartite NLS (domain or fragment) | –
